The values below come from patent US20110166062A1 (INDIANA UNIVERSITY RESEARCH AND TECHNOLOGY, published 2011).

Assay in all cases: cell-based or functional assay
The target in one assay is glucagon receptor (UniProt P47871 26-477, limits assumed).
The next assay addresses T1, GIP receptor (UniProt P48546 22-466).
T1 sequence (looked up): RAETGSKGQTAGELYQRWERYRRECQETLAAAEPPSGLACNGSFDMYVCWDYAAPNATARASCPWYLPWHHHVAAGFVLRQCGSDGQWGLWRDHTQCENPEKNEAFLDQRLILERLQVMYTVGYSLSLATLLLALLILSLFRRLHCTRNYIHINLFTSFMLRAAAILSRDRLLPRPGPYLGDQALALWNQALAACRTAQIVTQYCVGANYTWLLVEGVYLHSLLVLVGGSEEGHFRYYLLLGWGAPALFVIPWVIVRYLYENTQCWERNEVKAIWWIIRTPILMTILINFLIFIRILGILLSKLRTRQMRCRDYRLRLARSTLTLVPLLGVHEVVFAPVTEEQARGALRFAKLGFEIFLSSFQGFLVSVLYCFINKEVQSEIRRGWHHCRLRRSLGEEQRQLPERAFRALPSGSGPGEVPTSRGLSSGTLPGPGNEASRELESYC

The target of another assay is GLP-1 receptor (UniProt P43220 24-463, limits assumed).

Bridges are numbered along the chain shown (N, C = ends). Where no end group is shown, it is not given here.

Sequence of glucagon receptor (P47871 26-477 limits assumed): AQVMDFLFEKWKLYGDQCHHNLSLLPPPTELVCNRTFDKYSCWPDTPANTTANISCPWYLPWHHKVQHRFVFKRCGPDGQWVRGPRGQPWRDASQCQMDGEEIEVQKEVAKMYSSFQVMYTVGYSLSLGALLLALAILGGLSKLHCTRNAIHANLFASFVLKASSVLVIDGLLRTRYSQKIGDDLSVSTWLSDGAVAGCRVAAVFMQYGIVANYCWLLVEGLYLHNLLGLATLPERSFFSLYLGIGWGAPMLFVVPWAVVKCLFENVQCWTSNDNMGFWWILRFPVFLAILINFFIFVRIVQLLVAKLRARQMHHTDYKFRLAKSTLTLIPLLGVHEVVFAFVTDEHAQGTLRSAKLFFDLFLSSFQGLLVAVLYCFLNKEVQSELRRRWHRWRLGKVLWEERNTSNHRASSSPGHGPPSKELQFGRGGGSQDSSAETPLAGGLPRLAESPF

B1: mt-149 (peptide)
peptide: YAEGTFTSDYSIYLDEQAAKEFVNWLLAGGPSSGAPPPS-NH2
modifications: lactam 16-20; N-terminus assumed
SMILES: CC[C@H](C)[C@H](NC(=O)[C@H](CO)NC(=O)[C@H](Cc1ccc(O)cc1)NC(=O)[C@H](CC(=O)O)NC(=O)[C@H](CO)NC(=O)[C@@H](NC(=O)[C@H](Cc1ccccc1)NC(=O)[C@@H](NC(=O)CNC(=O)[C@H](CCC(=O)O)NC(=O)[C@H](C)NC(=O)[C@@H](N)Cc1ccc(O)cc1)[C@@H](C)O)[C@@H](C)O)C(=O)N[C@@H](Cc1ccc(O)cc1)C(=O)N[C@@H](CC(C)C)C(=O)N[C@@H](CC(=O)O)C(=O)N[C@H]1CCC(=O)NCCCC[C@@H](C(=O)N[C@@H](CCC(=O)O)C(=O)N[C@@H](Cc2ccccc2)C(=O)N[C@H](C(=O)N[C@@H](CC(N)=O)C(=O)N[C@@H](Cc2c[nH]c3ccccc23)C(=O)N[C@@H](CC(C)C)C(=O)N[C@@H](CC(C)C)C(=O)N[C@@H](C)C(=O)NCC(=O)NCC(=O)N2CCC[C@H]2C(=O)N[C@@H](CO)C(=O)N[C@@H](CO)C(=O)NCC(=O)N[C@@H](C)C(=O)N2CCC[C@H]2C(=O)N2CCC[C@H]2C(=O)N2CCC[C@H]2C(=O)N[C@@H](CO)C(N)=O)C(C)C)NC(=O)[C@H](C)NC(=O)[C@H](C)NC(=O)[C@H](CCC(N)=O)NC1=O
One may read the EC50 as the concentration giving half of the maximal effect. A low value points to greater potency. For B1, the results for the 50% effective concentration (EC50) with glucagon receptor, in the assay with GIP receptor and with GLP-1 receptor were 16.3 nM, 0.068 nM and 0.036 nM, respectively. In addition, the relative activity was found to be 0.64% in the assay with glucagon receptor, 91.2% with GIP receptor and 97.5% with GLP-1 receptor.

B2: mt-148 (peptide)
peptide: YSEGTFTSDYSIYLDEQAAKEFIAWLLAGGPSSGAPPPS-NH2
modifications: lactam 16-20; N-terminus assumed
SMILES: CC[C@H](C)[C@H](NC(=O)[C@H](Cc1ccccc1)NC(=O)[C@H](CCC(=O)O)NC(=O)[C@@H]1CCCCNC(=O)CC[C@H](NC(=O)[C@H](CC(=O)O)NC(=O)[C@H](CC(C)C)NC(=O)[C@H](Cc2ccc(O)cc2)NC(=O)[C@@H](NC(=O)[C@H](CO)NC(=O)[C@H](Cc2ccc(O)cc2)NC(=O)[C@H](CC(=O)O)NC(=O)[C@H](CO)NC(=O)[C@@H](NC(=O)[C@H](Cc2ccccc2)NC(=O)[C@@H](NC(=O)CNC(=O)[C@H](CCC(=O)O)NC(=O)[C@H](CO)NC(=O)[C@@H](N)Cc2ccc(O)cc2)[C@@H](C)O)[C@@H](C)O)[C@@H](C)CC)C(=O)N[C@@H](CCC(N)=O)C(=O)N[C@@H](C)C(=O)N[C@@H](C)C(=O)N1)C(=O)N[C@@H](C)C(=O)N[C@@H](Cc1c[nH]c2ccccc12)C(=O)N[C@@H](CC(C)C)C(=O)N[C@@H](CC(C)C)C(=O)N[C@@H](C)C(=O)NCC(=O)NCC(=O)N1CCC[C@H]1C(=O)N[C@@H](CO)C(=O)N[C@@H](CO)C(=O)NCC(=O)N[C@@H](C)C(=O)N1CCC[C@H]1C(=O)N1CCC[C@H]1C(=O)N1CCC[C@H]1C(=O)N[C@@H](CO)C(N)=O
Consider B2, for which the “EC50” value in the assay with glucagon receptor was found to be 4.91 nM; with GIP receptor, 0.095 nM; with GLP-1 receptor, 0.098 nM. Moreover, the relative activity amounted to 2.14% in the assay with glucagon receptor, 65.3% in the assay with GIP receptor and 36.2% with GLP-1 receptor.
